Test results published in US20200173986A1.

Target: endogenous SNAP25 in total cell lysate
Experiment: sandwich ELISA with total cell lysate, fusion supernatant

Sequence of endogenous SNAP25 in total cell lysate (P60879 whole entry, the tested form may be a part): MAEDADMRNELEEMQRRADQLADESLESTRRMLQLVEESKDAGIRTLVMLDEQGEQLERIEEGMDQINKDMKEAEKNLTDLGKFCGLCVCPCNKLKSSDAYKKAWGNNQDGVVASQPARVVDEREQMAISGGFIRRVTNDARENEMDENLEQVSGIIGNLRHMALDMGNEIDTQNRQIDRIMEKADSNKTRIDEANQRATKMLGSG

B1: B4 IgG (antibody, V domains shown)
VH: EVKLVESGGGLVKPGGSLKLSCAASGFTFSNYGMSWVRQTPEKRLEWVATISSGGSYTYYPDSVKGRFTISRDNAKNTLYLQMSSLRSEDTAMYYCARHEGGGNPYFDYWGQGTTLTVSS
VL: DVLMTQTPLSLPVSLGDQASISCRSSQSLVHSNGNTYLHWYLQKPGQSPKLLIYKVSNRFSGVPDRFSGSGSGTDFTLKISRVEAEDLGVYFCSQNTLVPWTFGGGTKLEIK
- ELISA signal (A450): 0.1
